“Also recorded” adds a separate entry of the source.
Legend:
mouse OIR model = experiment: Mouse oxygen-induced retinopathy (OIR) model, whole-mount retina quantification of vascular obliteration and neovascular tuft areas; format: in vivo; parameters: vascular morphology of the retina / neovascular tuft areas compared to VEGF aptamer treated retinas: dose or concentration left out as unconfirmed; conditions: for effect on area of neovascular tuft formation: single intravitreal injection at P12, various doses; for effect on physiological revascularization of the retina: vs PBS control
Procedure: All animal work adhered to strict protocol guidelines for the humane care and use of animals in research. OIR was induced according to the protocol described by Smith et al. Invest. Opthalmol. Vis. Sci., 1994; 35:101-111. Seven-day old mouse pups and their mothers were transferred from room air to a hyperoxic environment of about 75% oxygen for 5 days, and afterwards returned to room air (normoxia). Exposure to hyperoxic conditions was performed by putting the animal cages within a modified human infant incubator. Oxygen was circulated through the incubator (using an animal anesthesia machine to control flow) and levels were monitored and maintained at 74-75% using an FDA-approved oxygen analyzer (AX-300, Teledyne Analytical Instruments, CA, USA). During the 5 days of hyperoxia, the animals were examined at least three times daily. Unlimited food and water were available to the mothers throughout the experiment. After 5 days, i.e., at postnatal Day 12 (P12), cages were returned to room air.
After the mice were euthanized, enucleated eyes were fixed in 4% paraformaldehyde in PBS for about 10 minutes, and the retinas were dissected by making a circular cut behind the limbus, approximately at the iris root, and then removing the anterior part of the eye. The lens and vitreous were dissected out, and the retina was separated from the scleral and choroidal layers leaving the retina in an eye-cup configuration. Radial relaxing-incisions were made in the retina to allow it to flatten and any remnants of the vitreous or hyaloid were carefully removed from the flattened retina.
For FITC-dextran angiography, animals were anaesthetized by intraperitoneal injections of Ketamine HCl (Ketalar, Parke Davis, UK, 100 mg/kg) in combination with the relaxing agent Xylazine (2 mg/kg). Approximately 300 μl of high molecular weight (2×106 Da) FITC-Dextran (concentration 50 mg/ml, Sigma, St. Louis, Mo.) were injected into the left ventricle and allowed to circulate for approximately two minutes before euthanizing the animal and enucleating the eyes. For isolectin G4 staining, retinas were post-fixed in 4% paraformaldehyde for about 45 minutes, and incubated at room temperature overnight with isolectin GS-IB4 from Griffonia simplicifolia (isolectin GS) that was conjugated to Alexa Fluor 59 4 (Molecular Probes, 1:150 dilution in phosphate buffered saline (PBS)) to afford “isolectin GS-594”. Following 4-5 washes with PBS over a 2 hour span, retinas were mounted as whole-mount preparations on slides with SLOW FADE (Molecular Probes) for subsequent imaging.
Micrographic images were taken using a 4× objective lens with a detector resolution of 512×512 pixels. Extra care was taken to focus just above the inner limiting membrane of the retina using confocal microscopy (BioRad) so that the pre-laminar neovascular tufts became more prominent than the underlying superficial vascular plexus making subsequent quantification of the neovascular tuft areas easier. In most cases, four overlapping images (each representing one retinal quadrant) were acquired from each retina. Using Adobe PHOTOSHOP® 6.0, montages were then created using retinal landmarks such as the optic disc and major vessels to align the images. These montages allowed visualization and quantification of the entire retina. In a few cases where both the obliterated areas and all areas of neovascularization were located toward the center of the retina, single 4× images centered on the optic disk were acquired. While the peripheral retina is not included in its entirety in such images, the relevant OIR-induced changes can be fully seen in these cases. Each individual image was converted to a 2×2 inch size with 300 pixels per inch resolution prior to creating the montage and quantifying the obliteration and neovascular tuft areas. […]

angiogenesis = conditions: previously found; cited from earlier work
[1] = single intravitreal injection at P12, read at P17

Molecule | reduction of tuft formation (mouse OIR model; P19, after two injections (P13 and P16) of lower doses, VEGF aptamer 0.5 mg/eye/injection, 53.9 picomoles) | neovascular tuft areas compared to VEGF aptamer treated retinas (mouse OIR model; T2-TrpRS, intravitreal, molar concentration 10-fold below the aptamer) | inhibition of neovascular tuft formation (mouse OIR model; about 1.25 μg/eye, intravitreal) | vascular morphology of the retina (mouse OIR model; intravitreal at P12, P17) | obliterated areas compared to control retinas (mouse OIR model; intravitreal injection, areas of obliteration equivalent at time of injection) | effect on area of neovascular tuft formation (mouse OIR model; read at P17) | reduction of obliterated areas at P17 compared to PBS control-injected retinas (mouse OIR model; [1]) | effect on physiological revascularization of the retina (mouse OIR model; [1]) | angiostatic activity in other models of angiogenesis (angiogenesis)
T2-TrpRS: proteolytic fragment of tryptophan tRNA synthetase (TrpRS); SEQ ID NO: 1 (protein, listed as Homo sapiens) SAKGIDYDKLIVRFGSSKIDKELINRIERATGQRPHHFLRRGIFFSHRDMNQVLDAYENKKPFYLYTGRGPSSEAMHVGHLIPFIFTKWLQDVFNVPLVIQMTDDEKYLWKDLTLDQAYSYAVENAKDIIACGFDINKTFIFSDLDYMGMSSGFYKNVVKIQKHVTFNQVKGIFGFTDSDCIGKISFPAIQAAPSFSNSFPQIFRDRTDIQCLIPCAIDQDPYFRMTRDVAPRIGYPKPALLHSTFFPALQGAQTKMSASDPNSSIFLTDTAKQIKTKVNKHAFSGGRDTIEEHRQFGGNCDVDVSFMYLTFFLEDDDKLEQIRKDYTSGAMLTGELKKALIEVLQPLIAEHQARRKEVTDEIVKEFMTPRKLSFDFQ | over 75% | slight, but significant reduction | nearly complete inhibition | looked nearly normal | reduced by half | markedly reduced the area of neovascular tuft formation at P17 in a dose-dependent matter; also recorded: potent inhibitors of neovascular tuft formation; also recorded: strong, dose-dependent angiostatic effect | around 40% | significantly enhanced revascularization, even at lower doses | potent angiostatic potential
FL-TrpRS: full-length tryptophan tRNA synthetase (protein, UniProt P23381 1-471, looked up, full-length, full-length tryptophan tRNA synthetase) MPNSEPASLLELFNSIATQGELVRSLKAGNASKDEIDSAVKMLVSLKMSYKAAAGEDYKADCPPGNPAPTSNHGPDATEAEEDFVDPWTVQTSSAKGIDYDKLIVRFGSSKIDKELINRIERATGQRPHHFLRRGIFFSHRDMNQVLDAYENKKPFYLYTGRGPSSEAMHVGHLIPFIFTKWLQDVFNVPLVIQMTDDEKYLWKDLTLDQAYSYAVENAKDIIACGFDINKTFIFSDLDYMGMSSGFYKNVVKIQKHVTFNQVKGIFGFTDSDCIGKISFPAIQAAPSFSNSFPQIFRDRTDIQCLIPCAIDQDPYFRMTRDVAPRIGYPKPALLHSTFFPALQGAQTKMSASDPNSSIFLTDTAKQIKTKVNKHAFSGGRDTIEEHRQFGGNCDVDVSFMYLTFFLEDDDKLEQIRKDYTSGAMLTGELKKALIEVLQPLIAEHQARRKEVTDEIVKEFMTPRKLSFDFQ |  |  |  |  |  | some activity at the highest dose |  | significant enhancement of the revascularization process but only at the higher doses | no angiostatic activity
